{"source": "paper PMC5446193", "key": {"[1]": {"molecular_target": "TAT-Troponin", "test": "BLI; after the dissociation phase the sensors (1000 nM analyte samples) were moved into binding buffer with 10 mM EDTA, nm shift measured for 300 s; 25°C"}, "[2]": {"molecular_target": "TAT-Troponin", "test": "BLI"}}, "data": [{"substance": "Troponin inhibitory peptide-myoglobin", "values": [{"measurement": "koff (EDTA)", "setting": "[1]", "result": 0.018, "unit": "s⁻¹"}, {"measurement": "kon", "setting": "[2]", "result": 3700, "unit": "M⁻¹ s⁻¹"}]}]}
